Reference: article PMC4081071

T1: GLD-1 KH-QUA2 P228A (Caenorhabditis elegans, UniProt Q17339 195-336, P228A)
T1 sequence: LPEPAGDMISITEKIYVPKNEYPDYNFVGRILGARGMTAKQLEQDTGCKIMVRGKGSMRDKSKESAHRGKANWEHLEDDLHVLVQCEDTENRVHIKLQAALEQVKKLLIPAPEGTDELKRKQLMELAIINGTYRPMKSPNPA

T2: GLD-1 KH-QUA2 P228S (Caenorhabditis elegans, UniProt Q17339 195-336, P228S)
T2 sequence: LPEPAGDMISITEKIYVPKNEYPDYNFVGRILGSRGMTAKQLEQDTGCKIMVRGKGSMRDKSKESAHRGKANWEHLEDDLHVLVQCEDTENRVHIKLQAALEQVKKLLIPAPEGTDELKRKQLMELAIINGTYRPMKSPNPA

T3: GLD-1 KH-QUA2 (Caenorhabditis elegans, UniProt Q17339 195-336)
T3 sequence: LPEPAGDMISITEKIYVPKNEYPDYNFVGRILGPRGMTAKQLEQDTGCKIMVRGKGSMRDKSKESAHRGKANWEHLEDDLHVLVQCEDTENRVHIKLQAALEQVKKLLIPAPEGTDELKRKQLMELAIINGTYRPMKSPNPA


Key:
GLD-1 KH-QUA2 P228A = biological target: T1, GLD-1 KH-QUA2 P228A; assay: ITC
GLD-1 KH-QUA2 P228S = biological target: T2, GLD-1 KH-QUA2 P228S; assay: NMR HSQC titration
GLD-1 KH-QUA2 [1] = biological target: T3, GLD-1 KH-QUA2; assay: ITC
GLD-1 KH-QUA2 [2] = biological target: T3, GLD-1 KH-QUA2; assay: NMR HSQC titration

Binder | binding signal (GLD-1 KH-QUA2 P228A) | binding result (GLD-1 KH-QUA2 P228S) | Kd (GLD-1 KH-QUA2 [1]) | binding result (GLD-1 KH-QUA2 [2])
CUACUCAUAU (ssRNA) [tra-2 TGE strong site] | 19 fold decrease in affinity vs wild type | binds | 61 ± 3 nM | –
AUUUAAUUU (ssRNA) [tra-2 TGE weak site] | – | – | – | binds
